Where a chain is given by its changes, count along the chain named. Like-named read-outs stand apart in the source and are kept apart here. Values belong to the binder of their own block, whether it stands above or below them.
Experiments:
[1] = target: T1, human long form TSLP expressed on cell membrane; test: FACS on cells expressing the membrane human long-form TSLP fusion protein, MFI; unit taken from the concentration axis
T1 construct: also called membrane long-form huTSLP fusion protein; membrane long-form TSLP fusion protein
T1 sequence (chain, as listed by the source): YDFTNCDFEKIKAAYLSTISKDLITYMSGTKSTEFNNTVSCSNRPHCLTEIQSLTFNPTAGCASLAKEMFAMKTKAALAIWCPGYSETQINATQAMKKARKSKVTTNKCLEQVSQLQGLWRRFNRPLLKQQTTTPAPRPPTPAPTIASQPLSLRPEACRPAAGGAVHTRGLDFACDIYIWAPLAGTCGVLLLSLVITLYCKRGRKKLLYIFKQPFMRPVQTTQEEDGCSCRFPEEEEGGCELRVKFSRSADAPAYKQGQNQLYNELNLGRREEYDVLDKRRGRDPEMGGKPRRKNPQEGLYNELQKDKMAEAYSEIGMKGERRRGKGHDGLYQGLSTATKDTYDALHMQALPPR

[2] = target: T1, human long form TSLP expressed on cell …; test: as above; remark: listed apart in the source
[3] = target: T2, human long-form TSLP protein (Acro, tsp-h5255 or tsp-h52ha) (human, UniProt Q969D9 29-159); test: ELISA on coated human long-form TSLP, OD450; unit taken from the concentration axis
T2 construct: If it was tsp-h52ha, this is the same molecule as m12 (His-tagged); also called human TSLP protein
T2 sequence (Q969D9 29-159 R127A/R130A limits assumed): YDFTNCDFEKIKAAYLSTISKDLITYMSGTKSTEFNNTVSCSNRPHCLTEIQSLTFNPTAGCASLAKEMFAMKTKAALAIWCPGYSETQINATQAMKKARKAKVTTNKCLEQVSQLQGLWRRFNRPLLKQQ

[4] = target: T3, mouse long-form TSLP protein (ACRO, tsp-m52h8) (mouse, UniProt Q9JIE6 20-140); test: ELISA on coated mouse long-form TSLP
T3 construct: Bought; also called mouse TSLP
T3 sequence (looked up): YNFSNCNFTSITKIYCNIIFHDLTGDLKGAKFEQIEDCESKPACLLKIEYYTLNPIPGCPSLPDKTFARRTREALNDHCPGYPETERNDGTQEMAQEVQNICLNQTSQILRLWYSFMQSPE

[5] = target: T2, human long-form TSLP protein (Acro, …); test: BLI (Gator, HFC probe), antibody loaded at 10 ug/ml, TSLP at 50 to 1.56 nM
[6] = target: T4, membrane short-form huTSLP fusion protein (human); test: FACS on cells expressing membrane short-form huTSLP, MFI; ambiguous fit of a flat curve (Bottom 895.5, Top 876.2), see non_binding; unit taken from the concentration axis
T4 construct: also called human short form TSLP expressed on cell membrane
T4 sequence (chain, as listed by the source limits assumed): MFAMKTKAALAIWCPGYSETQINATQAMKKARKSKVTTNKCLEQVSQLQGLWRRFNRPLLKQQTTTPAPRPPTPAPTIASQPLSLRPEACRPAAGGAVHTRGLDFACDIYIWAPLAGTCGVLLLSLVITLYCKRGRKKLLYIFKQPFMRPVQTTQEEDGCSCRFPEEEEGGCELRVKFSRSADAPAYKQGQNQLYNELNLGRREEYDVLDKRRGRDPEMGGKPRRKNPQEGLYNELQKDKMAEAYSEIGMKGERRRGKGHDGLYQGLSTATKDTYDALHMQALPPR

[7] = target: T2, human long-form TSLP protein (Acro, …); test: ELISA on coated human long-form TSLP, OD450; unit taken from the concentration axis; remark: listed apart in the source
[8] = target: T5, cynomolgus long-form TSLP protein (ACRO, tsp-c52h8) (cynomolgus monkey, UniProt A0A7N9CAT7 29-159); test: ELISA on coated cynomolgus long-form TSLP, OD450; ambiguous fit of a flat curve (Bottom 0.06295, Top ~ 145.1), see non_binding; unit taken from the concentration axis
T5 construct: also called monkey long-form TSLP; Cyno TSLP
T5 sequence: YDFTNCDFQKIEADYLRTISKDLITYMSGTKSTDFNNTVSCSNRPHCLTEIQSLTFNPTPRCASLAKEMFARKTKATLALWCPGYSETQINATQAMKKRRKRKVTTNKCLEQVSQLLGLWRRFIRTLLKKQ

[9] = target: T4, membrane short-form huTSLP fusion …; test: FACS on cells expressing membrane short-form huTSLP, MFI; ambiguous fit of a flat curve (Bottom 712.4, Top 749.3), see non_binding; unit taken from the concentration axis
[10] = target: T5, cynomolgus long-form TSLP protein …; test: ELISA on coated cynomolgus long-form TSLP, OD450; ambiguous fit of a flat curve (Bottom 0.06800, Top ~ 0.8608), see non_binding; unit taken from the concentration axis
[11] = target: T1, human long form TSLP expressed on cell …; test: FACS on cells expressing the membrane human long-form TSLP fusion protein, MFI; unit taken from the concentration axis; remark: listed apart in the source
[12] = target: T1, human long form TSLP expressed on cell …; test: as above; remark: listed apart in the source
[13] = target: T1, human long form TSLP expressed on cell …; test: FACS on cells expressing the membrane human long-form TSLP fusion protein, MFI; rising binding curve, but the table column is headed IC50; unit taken from the concentration axis
[14] = target: T4, membrane short-form huTSLP fusion …; test: FACS on cells expressing membrane short-form huTSLP, MFI; ambiguous fit of a flat curve (Bottom 778.2, Top 872.2), see non_binding; unit taken from the concentration axis
[15] = target: T5, cynomolgus long-form TSLP protein …; test: ELISA on coated cynomolgus long-form TSLP, OD450; curve still rising at the highest concentration (about 1.2 at about 20 µg/mL, fitted Top 1.343); unit taken from the concentration axis
[16] = target: T2, human long-form TSLP protein (Acro, …); test: ELISA on coated human long-form TSLP, OD450; unit taken from the concentration axis; remark: listed apart in the source

- EC50 [1]: 0.129 µg/mL
B1: 39H11Z11 (antibody, human IgG2, V domains shown)
VH: QVQLVQSGAEVKKPGASVKVSCKASGYAFSSYWMNWVRQAPGQGLEWMGQIFPGDGETNYNGKFKGRVTMTRDTSTSTVYMELSSLRSEDTAVYYCARGGYVNFLYAMDYWGQGTTVTVSS
VL: EIVMTQSPATLSVSPGERATLSCSVSSSISSSNLHWYQQKPGQSPRPWIYGTSTLASGIPARFSGSGSGTEFTLTISSLQSEDFAVYYCQQWSSYPLTFGGGTKVEIK

- EC50 [2]: 0.158 µg/mL
B2: 35G12Z01 (antibody, human IgG2, V domains shown)
VH: QVQLVQSGAEVKKPGASVKVSCKSSGYAFSSYWMNWVRQAPGQGLEWMGQIFPGDGDTTYNGNFKGRVTMTRDTSTSTVYMELSSLRSEDTAVYYCARSGFDYGYFYAMDYWGQGTTVTVSS
VL: B1 VL with Y50F, T54N

- EC50 [3]: 0.206 µg/mL
- binding result [4]: no binding (tested: about 20 µg/mL)
- Kd [5]: 1.98 nM
- EC50 [6]: ~0.384 µg/mL
- EC50 [7]: 0.122 µg/mL
- EC50 [8]: ~51.9 µg/mL
B3: mAb35G12 (antibody)
heavy: QVQLVQSGAEVKKPGSSVKVSCKSSGYAFSSYWINWVRQAPGQGLEWMGQIFPGDGDTTYNGNFKGRVTITADKSTSTAYMELSSLRSEDTAVYYCARSGFDYGYFYAMDYWGQGTTVTVSSASTKGPSVFPLAPCSRSTSESTAALGCLVKDYFPEPVTVSWNSGALTSGVHTFPAVLQSSGLYSLSSVVTVPSSSLGTKTYTCNVDHKPSNTKVDKRVESKYGPPCPPCPAPEAAGGPSVFLFPPKPKDTLYITREPEVTCVVVDVSQEDPEVQFNWYVDGVEVHNAKTKPREEQFNSTYRVVSVLTVLHQDWLNGKEYKCKVSNKGLPSSIEKTISKAKGQPREPQVYTLPPSQEEMTKNQVSLTCLVKGFYPSDIAVEWESNGQPENNYKTTPPVLDSDGSFFLYSRLTVDKSRWQEGNVFSCSVMHEALHNHYTQKSLSLSLG
light: B1 VL with Y50F, T54N
notes: not shown: human kappa light chain constant region ('its corresponding light chain vector')

- EC50 [2]: 0.174 µg/mL
B4: 35G12Z02 (antibody, human IgG2, V domains shown)
VH: EVQLVQSGAEVKKPGESLKISCKSSGYAFSSYWINWVRQMPGKGLEWMGQIFPGDGDTTYNGNFKGQVTISADKSISTAYLQWSSLKASDTAMYYCARSGFDYGYFYAMDYWGQGTTVTVSS
VL: B1 VL with Y50F, T54N

- EC50 [3]: 0.153 µg/mL
- binding result [4]: no binding (tested: about 20 µg/mL)
- Kd [5]: 2.1 nM
- EC50 [9]: ~0.134 µg/mL
- EC50 [7]: 0.149 µg/mL
- EC50 [10]: ~23.8 µg/mL
B5: mAb39H11 (antibody, IgG4)
heavy: QVQLVQSGAEVKKPGSSVKVSCKASGYAFSSYWMNWVRQAPGQGLEWMGQIFPGDGETNYNGKFKGRVTITADKSTSTAYMELSSLRSEDTAVYYCARGGYVNFLYAMDYWGQGTTVTVSSASTKGPSVFPLAPCSRSTSESTAALGCLVKDYFPEPVTVSWNSGALTSGVHTFPAVLQSSGLYSLSSVVTVPSSSLGTKTYTCNVDHKPSNTKVDKRVESKYGPPCPPCPAPEAAGGPSVFLFPPKPKDTLYITREPEVTCVVVDVSQEDPEVQFNWYVDGVEVHNAKTKPREEQFNSTYRVVSVLTVLHQDWLNGKEYKCKVSNKGLPSSIEKTISKAKGQPREPQVYTLPPSQEEMTKNQVSLTCLVKGFYPSDIAVEWESNGQPENNYKTTPPVLDSDGSFFLYSRLTVDKSRWQEGNVFSCSVMHEALHNHYTQKSLSLSLG
light: B1 VL
notes: as for B3

- EC50 [11]: 0.079 µg/mL
B6: 39H11Z07 (antibody, human IgG2, kappa)
heavy: QVQLVQSGAEVKKPGSSVKVSCKASGYAFSSYWMNWVRQAPGQGLEWMGQIFPGDGETNYNGKFKGRVTITADKSTSTAYMELSSLRSEDTAVYYCARGGYVNFLYAMDYWGQGTTVTVSSASTKGPSVFPLAPCSRSTSESTAALGCLVKDYFPEPVTVSWNSGALTSGVHTFPAVLQSSGLYSLSSVVTVPSSNFGTQTYTCNVDHKPSNTKVDKTVERKCCVECPPCPAPPVAGPSVFLFPPKPKDTLMISRTPEVTCVVVDVSHEDPEVQFNWYVDGVEVHNAKTKPREEQFNSTFRVVSVLTVVHQDWLNGKEYKCKVSNKGLPAPIEKTISKTKGQPREPQVYTLPPSREEMTKNQVSLTCLVKGFYPSDISVEWESNGQPENNYKTTPPMLDSDGSFFLYSKLTVDKSRWQQGNVFSCSVMHEALHNHYTQKSLSLSPGK
light: EIVMTQSPATLSVSPGERATLSCSVSSSISSSNLHWYQQKPGQSPRPWIYGTSTLASGIPARFSGSGSGTEFTLTISSLQSEDFAVYYCQQWSSYPLTFGGGTKVEIKRTVAAPSVFIFPPSDEQLKSGTASVVCLLNNFYPREAKVQWKVDNALQSGNSQESVTEQDSKDSTYSLSSTLTLSKADYEKHKVYACEVTHQGLSSPVTKSFNRGEC
notes: also called 39H11Z07-IgG2

- EC50 [2]: 0.159 µg/mL
B7: 35G12Z03 (antibody, human IgG2, kappa)
heavy: QVQLVQSGAEVKKPGSSVKVSCKSSGYAFSSYWINWVRQAPGQGLEWMGQIFPGDGDTTYNGNFKGRVTITADKSTSTAYMELSSLRSEDTAVYYCARSGFDYGYFYAMDYWGQGTTVTVSSASTKGPSVFPLAPCSRSTSESTAALGCLVKDYFPEPVTVSWNSGALTSGVHTFPAVLQSSGLYSLSSVVTVPSSNFGTQTYTCNVDHKPSNTKVDKTVERKCCVECPPCPAPPVAGPSVFLFPPKPKDTLMISRTPEVTCVVVDVSHEDPEVQFNWYVDGVEVHNAKTKPREEQFNSTFRVVSVLTVVHQDWLNGKEYKCKVSNKGLPAPIEKTISKTKGQPREPQVYTLPPSREEMTKNQVSLTCLVKGFYPSDISVEWESNGQPENNYKTTPPMLDSDGSFFLYSKLTVDKSRWQQGNVFSCSVMHEALHNHYTQKSLSLSPGK
light: B6 light with Y50F, T54N
notes: also called 35G12Z03-IgG2

- EC50 [12]: 0.219 µg/mL
- binding result [4]: no binding (tested: about 20 µg/mL)
- EC50 [13]: 0.515 µg/mL
- EC50 [1]: 0.0466 µg/mL
- EC50 [14]: ~13.5 µg/mL
- EC50 [2]: 0.156 µg/mL
- EC50 [15]: 1.24 µg/mL
- EC50 [11]: 0.0712 µg/mL
B8: AMG 157 (antibody, human IgG2, lambda, V domains shown)
VH: QMQLVESGGGVVQPGRSLRLSCAASGFTFRTYGMHWVRQAPGKGLEWVAVIWYDGSNKHYADSVKGRFTITRDNSKNTLNLQMNSLRAEDTAVYYCARAPQWELVHEAFDIWGQGTMVTVSS
VL: SYVLTQPPSVSVAPGQTARITCGGNNLGSKSVHWYQQKPGQAPVLVVYDDSDRPSWIPERFSGSNSGNTATLTISRGEAGDEADYYCQVWDSSSDHVVFGGGTKLTVLG
notes: also called BMK; benchmark

- EC50 [12]: 0.228 µg/mL
- EC50 [16]: 0.0325 µg/mL
- EC50 [1]: 0.111 µg/mL
- EC50 [11]: 0.0953 µg/mL
B9: Chi39H11 (antibody, human IgG2, V domains shown)
VH: QVQLQQSGAELVRPGSSVKISCKASGYAFSSYWMNWVKQRPGQGLEWIGQIFPGDGETNYNGKFKGKATLTADKSSSTAYMQLSSLTSEDSAVYFCARGGYVNFLYAMDYWGQGTSVTVSS
VL: EIVLTQSPALMAASPGEKVTITCSVSSSISSSNLHWYQQKSETSPKPWIYGTSTLASGVPVRFSGSGSGTSYSLTISSMEAEDAATYYCQQWSSYPLTFGAGTKLELK
notes: also called 39H11 chimeric antibody

- EC50 [13]: 0.403 µg/mL
- EC50 [2]: 0.173 µg/mL
B10: Chi35G12 (antibody, human IgG2, V domains shown)
VH: QVQLQQSGAELVRPGSSVKISCKSSGYAFSSYWMNWVKQRPGQGLEWIGQIFPGDGDTTYNGNFKGKTTLTADKSSNTAYMQLSSLTSEDSAVYFCARSGFDYGYFYAMDYWGQGTSVTVSS
VL: B9 VL with A9T, Y50F, T54N, S78N
notes: also called 35G12 chimeric antibody
